Data set [1] concerns the molecule itself. The data set can be described thus: cross-linking; purified RD3 (0.1 ug) with 0.5 mM BS3 for 2 min at room temperature, stopped with Tris-HCl pH 7.5; SDS-PAGE and anti-RD3 immunoblot; monomer to dimer. In general terms: Immunoblotting shows a protein as a band on a membrane.
In data set [2] the target is T1, Guanylate kinase (GUK), mouse, isoform 1 (mouse, UniProt Q64520-2 1-219).
T1 construct: it gives an expected theoretical mass of 22 kDa, which fits about 198 aa better than the printed 219 aa; also called recombinant GUK; GUK1
T1 sequence (looked up): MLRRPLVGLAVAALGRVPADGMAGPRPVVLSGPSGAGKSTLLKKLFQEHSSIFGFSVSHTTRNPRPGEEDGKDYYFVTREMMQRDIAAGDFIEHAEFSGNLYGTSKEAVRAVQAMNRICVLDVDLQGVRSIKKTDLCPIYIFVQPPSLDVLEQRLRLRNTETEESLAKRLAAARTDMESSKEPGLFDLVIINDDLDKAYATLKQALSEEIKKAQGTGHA
Kind of data set: back-scattering interferometry (BSI); free solution, label-free, nothing immobilised; RD3 (or TEV protease) 0 to 300 nM titrated into lysate supernatant of stable GUK HEK-293T cells (0.1 ug/ul) in 20 mM phosphate buffer pH 7.0, 150 mM NaCl, 0.005% Tween 20; overnight at 4°C; titration of lysate without GUK subtracted; apparent KD, Hill fit. The following applies: one partner purified.

The target of data set [3] is T2, Guanylate kinase (GUK) in a soluble extract from bovine rod outer segments (bovine (endogenous in rod outer …, UniProt P46195 1-198)).
T2 sequence (looked up): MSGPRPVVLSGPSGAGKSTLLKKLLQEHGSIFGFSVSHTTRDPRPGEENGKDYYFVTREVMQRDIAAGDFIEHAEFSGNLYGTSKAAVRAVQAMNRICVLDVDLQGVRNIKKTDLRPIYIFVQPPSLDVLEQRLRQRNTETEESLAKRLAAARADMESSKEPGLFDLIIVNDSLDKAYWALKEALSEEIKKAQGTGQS
The data set can be described thus: cell-based or functional assay.

Data set [4] has as its target T3, Guanylate kinase (GUK) from porcine brain (porcine, UniProt P31006 1-198).
T3 sequence (looked up): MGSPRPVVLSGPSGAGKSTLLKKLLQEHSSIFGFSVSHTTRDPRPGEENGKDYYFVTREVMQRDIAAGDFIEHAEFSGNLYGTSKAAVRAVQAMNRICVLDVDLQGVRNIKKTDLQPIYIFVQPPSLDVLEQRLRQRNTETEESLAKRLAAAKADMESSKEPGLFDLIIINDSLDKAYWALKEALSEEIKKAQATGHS
The data set can be described thus: cell-based or functional assay.

B1: Retinal degeneration protein 3 (RD3), human, His6-tagged (natural protein, UniProt Q7Z3Z2 1-195, looked up)
chain: MSLISWLRWNEAPSRLSTRSPAEMVLETLMMELTGQMREAERQQRERSNAVRKVCTGVDYSWLASTPRSTYDLSPIERLQLEDVCVKIHPSYCGPAILRFRQLLAEQEPEVQEVSQLFRSVLQEVLERMKQEEEAHKLTRQWSLRPRGSLATFKTRARISPFASDIRTISEDVERDTPPPLRSWSMPEFRAPKAD
notes: The forward primer puts a few extra vector or primer residues before the first Met; also called RD3 - His6; His-tagged RD3
Turning to B1, the stoichiometry N (in general, a count of units in the complex or per binding partner) in data set [1] worked out at 2. Moreover, the Kd in data set [2] was around 100 nM. Moreover, the “guanylate kinase activity (5'-GMP to GDP, coupled spectrophotometric assay at 340 nm), RD3 0 to 3.5 uM” value in data set [3] is 2 fold; in data set [4], around 10 fold.

The record behind these values is PMC5826319, “Control of the Nucleotide Cycle in Photoreceptor Cell Extracts by Retinal Degeneration Protein 3” (Frontiers in Molecular Neuroscience, 2018).
